Measurements: patent publication US10766960 (dated 2020)

T1: FcgRIIa R (human, UniProt P12318)
T1 chain: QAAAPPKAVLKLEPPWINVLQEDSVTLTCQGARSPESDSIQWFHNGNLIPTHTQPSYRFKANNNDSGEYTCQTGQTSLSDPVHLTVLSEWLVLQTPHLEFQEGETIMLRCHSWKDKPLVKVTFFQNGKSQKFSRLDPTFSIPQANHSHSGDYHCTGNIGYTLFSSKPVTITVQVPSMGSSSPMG

T2: FcgRIIb (human, UniProt P31994)
T2 chain: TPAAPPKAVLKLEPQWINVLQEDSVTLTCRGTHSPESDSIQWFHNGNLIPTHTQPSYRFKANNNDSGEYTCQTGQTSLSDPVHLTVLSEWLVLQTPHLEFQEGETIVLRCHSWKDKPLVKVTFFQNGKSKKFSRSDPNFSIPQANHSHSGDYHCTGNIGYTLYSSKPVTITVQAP

T3: FcgRIa (human, UniProt P12314)
T3 chain: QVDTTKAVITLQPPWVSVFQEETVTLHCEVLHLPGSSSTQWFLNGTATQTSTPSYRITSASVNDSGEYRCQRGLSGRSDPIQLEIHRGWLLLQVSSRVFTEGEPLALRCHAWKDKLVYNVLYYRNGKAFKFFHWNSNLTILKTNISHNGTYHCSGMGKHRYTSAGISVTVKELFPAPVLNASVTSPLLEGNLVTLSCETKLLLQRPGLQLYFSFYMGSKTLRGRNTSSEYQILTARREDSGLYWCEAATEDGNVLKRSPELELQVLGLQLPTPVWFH

T4: FcgRIIa H (human, UniProt P12318)
T4 chain: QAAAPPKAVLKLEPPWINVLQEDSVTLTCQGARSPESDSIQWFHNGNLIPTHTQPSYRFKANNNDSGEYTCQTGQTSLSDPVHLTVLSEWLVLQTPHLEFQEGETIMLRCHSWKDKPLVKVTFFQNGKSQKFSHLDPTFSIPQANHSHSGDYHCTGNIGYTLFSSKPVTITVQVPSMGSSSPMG


Assays:
Test in all cases: SPR
[1] = target: T1, FcgRIIa R
[2] = target: T2, FcgRIIb
[3] = target: T3, FcgRIa
[4] = target: FcgRIIIa F (human, UniProt P08637)
Sequence of FcgRIIIa F (P08637 17-208): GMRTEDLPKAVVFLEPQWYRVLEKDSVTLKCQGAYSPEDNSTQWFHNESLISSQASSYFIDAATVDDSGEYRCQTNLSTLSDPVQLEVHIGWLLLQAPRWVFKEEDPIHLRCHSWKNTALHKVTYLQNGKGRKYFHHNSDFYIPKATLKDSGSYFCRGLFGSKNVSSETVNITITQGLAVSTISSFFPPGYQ

[5] = target: T4, FcgRIIa H
[6] = target: FcgRIIIa V (human, UniProt P08637)
Sequence of FcgRIIIa V (P08637 17-208 F176V): as the sequence (P08637 17-208) above, with F160V counted along it

Binder	Kd [1] [nM]	Kd [2] [nM]	Kd [3] [nM]	Kd [4] [nM]	Kd [5] [nM]	Kd [6] [nM]
H240-FA012/H240-FB056/L73-k0 (antibody) chain 1: QDQLVQSGAEVKKPGASVKVSCKASGFNIKDTYIQWVRQAPGQGLEWMGRIDPLRKQTKYREKFEGRVTITADTSTNTAYMELSSLRSEDTAVYYCVRSGREFDYWGQGTLVTVSSASTKGPSVFPLAPSSKSTSGGTAALGCLVKDYFPEPVTVSWNSGALTSGVHTFPAVLQSSGLYSLSSVVTVPSSSLGTKTYICNVNHKPSNTKVDKKVEPKSCDKTHTCPPCPAPEYYWGPSVFLFPPKPKDTLMISRTPEVTCVVVDVSDEEPKVKFNWYVDGVEVHNAKTKPREEQYNATYRVVSVLTVLHQDWLNGKEYKCKVSNKALPAPIEKTISKAKGQPREPQVYTLPPSRKEMTKNQVSLTCLVKGFYPSDIAVEWESNGQPENNYKTTPPVLDSDGSFFLYSKLTVDKSRWQQGNVFSCSVMHEALHNRYTQKSLSLSP chain 2: QDQLVQSGAEVKKPGASVKVSCKASGFNIKDTYIQWVRQAPGQGLEWMGRIDPLRKQTKYREKFEGRVTITADTSTNTAYMELSSLRSEDTAVYYCVRSGREFDYWGQGTLVTVSSASTKGPSVFPLAPSSKSTSEGTAALGCLVEDYFPEPVTVSWNSGALTSGVHTFPAVLQSSGLYSLSSVVTVPSSSLGTQTYICNVDHKPSNTKVDKKVEPKSCDKTHTCPPCPAPELLGGPSVFLFPPKPKDTLMISRTPEVTCVVVDVSHEEPEVQFNWYVDGVEVHNAETKPREEQYNSTYRVVSVLTVLHQDWLNGKEYKCKVSNDALPMPIEETISKAKGQPREPQVYTLPPSREEMTKNQVSLTCLVKGFYPSDIAVEWESNGQPENNYKTTPPVLDSDGSFFLYSKLTVDKSRWQQGNVFSCSVMHEALHNHYTQESLSLSP chain 3: DIQMTQSPSSLSASVGDRVTITCRASQDIHKYIAWYQQKPGQAPRLLIQYTSTLQPGVPSRFSGSGSGTDYTFTISSLQPEDIATYYCLQYEQLRTFGGGTKVEIKRTVAAPSVFIFPPSDEQLKSGTASVVCLLNNFYPREAKVQWKVDNALQSGNSQESVTEQDSKDSTYSLSSTLTLSKADYEKHKVYACEVTHQGLSSPVTKSFNRGEC	280	1400	0.1	5	86	1.3
H240-FA020/H240-FB059/L73-k0 (antibody) chain 1: QDQLVQSGAEVKKPGASVKVSCKASGFNIKDTYIQWVRQAPGQGLEWMGRIDPLRKQTKYREKFEGRVTITADTSTNTAYMELSSLRSEDTAVYYCVRSGREFDYWGQGTLVTVSSASTKGPSVFPLAPSSKSTSGGTAALGCLVKDYFPEPVTVSWNSGALTSGVHTFPAVLQSSGLYSLSSVVTVPSSSLGTKTYTCNVNHKPSNTKVDKKVEPKSCDKTHTCPPCPAPEYYWGPSVFLFPPKPKDTLMISRTPEVTCVVVDVSDEEPEVKFNWYVDGVEVHNAKTKPREEQYNATYRVVSVLTVLHQDWLNGKEYKCKVSNKALPAPIEKTISKAKGQPREPQVYTLPPSRKEKTKNQVSLTCLVKGFYPSDIAVEWESNGQPENNYKTTPPVLDSDGSFFLYSKLTVDKSRWQQGNVFSCSVMHEALHNRYTQKSLSLSP chain 2: QDQLVQSGAEVKKPGASVKVSCKASGFNIKDTYIQWVRQAPGQGLEWMGRIDPLRKQTKYREKFEGRVTITADTSTNTAYMELSSLRSEDTAVYYCVRSGREFDYWGQGTLVTVSSASTKGPSVFPLAPSSKSTSGETAALGCLVEDYFPEPVTVSWNSGALTSGVHTFPAVLQSSGLYSLSSVVTVPSSSLGTQTYICNVNHKPSNTKVDKKVEPKSCDKTHTCPPCPAPELLGGPSVFLFPPKPKDTLMISRTPEVTCVVVDVSHEEPEVQFNWYVDGVEVHNAETKPREEQYNSTYRVVSVLTVLHQDWLNGKEYKCKVSNDALPMPIEETISKAKGQPREPQVYTLPPSREEMTKNQVSLTCLVKGFYPSDIAVEWESNGQPENNYKTTPPVLDSDGSFFLYSKLTVDKSRWQQGNVFSCSVMHEALHNHYTQESLSLSP chain 3: DIQMTQSPSSLSASVGDRVTITCRASQDIHKYIAWYQQKPGQAPRLLIQYTSTLQPGVPSRFSGSGSGTDYTFTISSLQPEDIATYYCLQYEQLRTFGGGTKVEIKRTVAAPSVFIFPPSDEQLKSGTASVVCLLNNFYPREAKVQWKVDNALQSGNSQESVTEQDSKDSTYSLSSTLTLSKADYEKHKVYACEVTHQGLSSPVTKSFNRGEC	250	1300	0.038	3.5	77	1.3
H240-FA009/H240-FB015/L73-k0 (antibody) chain 1: QDQLVQSGAEVKKPGASVKVSCKASGFNIKDTYIQWVRQAPGQGLEWMGRIDPLRKQTKYREKFEGRVTITADTSTNTAYMELSSLRSEDTAVYYCVRSGREFDYWGQGTLVTVSSASTKGPSVFPLAPSSKSTSGGTAALGCLVKDYFPEPVTVSWNSGALTSGVHTFPAVLQSSGLYSLSSVVTVPSSSLGTKTYICNVNHKPSNTKVDKKVEPKSCDKTHTCPPCPAPEYYWGPSVFLFPPKPKDTLMISRTPEVTCVVVDVSDEEPEVKFNWYVDGVEVHNAKTKPREEQYNATYRVVSVLTVLHQDWLNGKEYKCKVSNKALPAPIEKTISKAKGQPREPQVYTLPPSRKEMTKNQVSLTCLVKGFYPSDIAVEWESNGQPENNYKTTPPVLDSDGSFFLYSKLTVDKSRWQQGNVFSCSVMHEALHNRYTQKSLSLSP chain 2: QDQLVQSGAEVKKPGASVKVSCKASGFNIKDTYIQWVRQAPGQGLEWMGRIDPLRKQTKYREKFEGRVTITADTSTNTAYMELSSLRSEDTAVYYCVRSGREFDYWGQGTLVTVSSASTKGPSVFPLAPSSKSTSEGTAALGCLVKDYFPEPVTVSWNSGALTSGVHTFPAVLQSSGLYSLSSVVTVPSSSLGTQTYICNVNHKPSNTKVDKKVEPKSCDKTHTCPPCPAPELLGGPSVFLFPPKPKDTLMISRTPEVTCVVVDVSHEEPEVQFNWYVDGVEVHNAKTKPREEQYNSTYRVVSVLTVLHQDWLNGKEYKCKVSNDALPMPIEETISKAKGQPREPQVYTLPPSREEMTKNQVSLTCLVKGFYPSDIAVEWESNGQPENNYKTTPPVLDSDGSFFLYSKLTVDKSRWQQGNVFSCSVMHEALHNHYTQESLSLSP chain 3: DIQMTQSPSSLSASVGDRVTITCRASQDIHKYIAWYQQKPGQAPRLLIQYTSTLQPGVPSRFSGSGSGTDYTFTISSLQPEDIATYYCLQYEQLRTFGGGTKVEIKRTVAAPSVFIFPPSDEQLKSGTASVVCLLNNFYPREAKVQWKVDNALQSGNSQESVTEQDSKDSTYSLSSTLTLSKADYEKHKVYACEVTHQGLSSPVTKSFNRGEC	330	1800	0.093	4.2	84	1.3
H240-FA030/H240-FB064/L73-k0 (antibody) chain 1: QDQLVQSGAEVKKPGASVKVSCKASGFNIKDTYIQWVRQAPGQGLEWMGRIDPLRKQTKYREKFEGRVTITADTSTNTAYMELSSLRSEDTAVYYCVRSGREFDYWGQGTLVTVSSASTKGPSVFPLAPSSKSTSGGTAALGCLVKDYFPEPVTVSWNSGALTSGVHTFPAVLQSSGLYSLSSVVTVPSSSLGTKTYTCNVNHKPSNTKVDKKVEPKSCDKTHTCPPCPAPEYYWGPSVFLFPPKPKDTLMISRTPEVTCVVVDVSDEEPKVKFNWYVDGVEVHNAKTKPREEQYNATYRVVSVLTVLHQDWLNGKEYKCKVSNKALPAPIEKTISKAKGQPREPQVYTLPPSRKEMTKNQVSLTCLVKGFYPSDIAVEWESNGQPENNYKTTPPVLDSDGSFFLYSKLTVDKSRWQQGNVFSCSVMHEALHNRYTQKSLSLSP chain 2: QDQLVQSGAEVKKPGASVKVSCKASGFNIKDTYIQWVRQAPGQGLEWMGRIDPLRKQTKYREKFEGRVTITADTSTNTAYMELSSLRSEDTAVYYCVRSGREFDYWGQGTLVTVSSASTKGPSVFPLAPSSKSTSESTAALGCLVKDYFPEPVTVSWNSGALTSGVHTFPAVLQSSGLYSLSSVVTVPSSNFGTQTYTCNVDHKPSNTKVDKTVEPKSCDKTHTCPPCPAPELLGGPSVFLFPPKPKDTLMISRTPEVTCVVVDVSHEEPEVQFNWYVDGVEVHNAKTKPREEQYNSTYRVVSVLTVLHQDWLNGKEYKCKVSNDALPMPIEETISKAKGQPREPQVYTLPPSREEMTKNQVSLTCLVKGFYPSDIAVEWESNGQPENNYKTTPPVLDSDGSFFLYSKLTVDKSRWQQGNVFSCSVMHEALHNHYTQESLSLSP chain 3: DIQMTQSPSSLSASVGDRVTITCRASQDIHKYIAWYQQKPGQAPRLLIQYTSTLQPGVPSRFSGSGSGTDYTFTISSLQPEDIATYYCLQYEQLRTFGGGTKVEIKRTVAAPSVFIFPPSDEQLKSGTASVVCLLNNFYPREAKVQWKVDNALQSGNSQESVTEQDSKDSTYSLSSTLTLSKADYEKHKVYACEVTHQGLSSPVTKSFNRGEC	290	1800	0.057	5.3	96	1.5
